Residue numbers refer to the chain shown, from its start. Values belong to the binder of their own block, whether it stands above or below them.
Experiments:
[1] = biological target: human FGFR1c + KLB receptor complex on HEK293 iLite FGF21 reporter cells (human, UniProt P11362 22-822; Q86Z14 1-1044); experiment: cell-based or functional assay
human beta-Klotho (KLB) = biological target: T1, human beta-Klotho (KLB) (human, UniProt Q86Z14 53-997); experiment: SPR;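 note: Anti-KLB antibodies captured on anti-human Fc CM5 chip, KLB injected as analyte, 180 s association and 1800 s dissociation, fitted to 1:1 binding model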
T1 construct: bought protein; also called human KLB
T1 sequence (looked up): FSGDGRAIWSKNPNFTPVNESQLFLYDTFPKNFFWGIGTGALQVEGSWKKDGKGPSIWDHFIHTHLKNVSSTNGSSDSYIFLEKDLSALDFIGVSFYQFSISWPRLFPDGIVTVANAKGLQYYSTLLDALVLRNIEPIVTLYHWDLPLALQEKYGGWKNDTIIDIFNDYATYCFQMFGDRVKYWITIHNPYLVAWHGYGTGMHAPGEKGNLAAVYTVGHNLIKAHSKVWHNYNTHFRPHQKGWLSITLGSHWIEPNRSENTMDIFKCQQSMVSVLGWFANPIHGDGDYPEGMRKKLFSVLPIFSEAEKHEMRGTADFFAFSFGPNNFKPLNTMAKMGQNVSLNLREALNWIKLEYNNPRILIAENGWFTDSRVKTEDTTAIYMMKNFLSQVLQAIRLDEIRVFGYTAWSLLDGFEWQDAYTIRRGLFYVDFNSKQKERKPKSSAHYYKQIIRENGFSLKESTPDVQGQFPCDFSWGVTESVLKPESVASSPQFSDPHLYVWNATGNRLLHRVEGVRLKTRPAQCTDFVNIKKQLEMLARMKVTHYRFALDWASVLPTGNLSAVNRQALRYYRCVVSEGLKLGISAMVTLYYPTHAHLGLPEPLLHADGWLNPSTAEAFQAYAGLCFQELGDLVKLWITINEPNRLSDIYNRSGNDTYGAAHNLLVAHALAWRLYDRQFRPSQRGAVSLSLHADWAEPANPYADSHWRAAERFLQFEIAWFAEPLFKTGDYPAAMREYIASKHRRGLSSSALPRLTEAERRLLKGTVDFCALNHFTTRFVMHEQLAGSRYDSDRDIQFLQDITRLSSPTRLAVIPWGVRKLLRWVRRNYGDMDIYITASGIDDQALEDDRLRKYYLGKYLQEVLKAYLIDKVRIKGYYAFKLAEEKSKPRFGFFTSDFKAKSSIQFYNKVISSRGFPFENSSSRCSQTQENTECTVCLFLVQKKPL

Sequence of human FGFR1c + KLB receptor complex on HEK293 iLite FGF21 reporter cells (P11362 22-822, chain 1 of 2): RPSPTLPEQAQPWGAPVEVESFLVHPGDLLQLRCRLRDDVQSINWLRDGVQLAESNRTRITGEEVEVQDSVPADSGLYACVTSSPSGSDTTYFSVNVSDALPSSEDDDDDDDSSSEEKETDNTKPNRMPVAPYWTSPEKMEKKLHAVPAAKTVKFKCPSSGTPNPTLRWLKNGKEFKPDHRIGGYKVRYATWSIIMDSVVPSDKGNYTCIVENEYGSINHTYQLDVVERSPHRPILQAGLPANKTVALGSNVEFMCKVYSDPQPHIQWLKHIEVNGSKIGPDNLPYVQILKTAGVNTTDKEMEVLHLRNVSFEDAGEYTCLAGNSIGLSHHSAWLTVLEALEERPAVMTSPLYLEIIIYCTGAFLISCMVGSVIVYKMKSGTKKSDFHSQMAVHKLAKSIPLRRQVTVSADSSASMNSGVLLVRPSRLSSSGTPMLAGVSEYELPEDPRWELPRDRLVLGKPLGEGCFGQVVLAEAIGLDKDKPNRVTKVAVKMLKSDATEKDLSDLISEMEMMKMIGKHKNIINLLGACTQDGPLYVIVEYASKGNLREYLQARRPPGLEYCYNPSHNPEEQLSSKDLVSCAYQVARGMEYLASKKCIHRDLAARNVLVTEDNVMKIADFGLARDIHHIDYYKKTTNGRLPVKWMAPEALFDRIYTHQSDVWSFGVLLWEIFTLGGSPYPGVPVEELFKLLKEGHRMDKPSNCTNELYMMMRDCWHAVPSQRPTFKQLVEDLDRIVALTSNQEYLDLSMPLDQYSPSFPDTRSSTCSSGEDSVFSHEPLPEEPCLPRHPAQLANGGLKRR
Sequence of human FGFR1c + KLB receptor complex on HEK293 iLite FGF21 reporter cells (Q86Z14 whole entry, chain 2 of 2): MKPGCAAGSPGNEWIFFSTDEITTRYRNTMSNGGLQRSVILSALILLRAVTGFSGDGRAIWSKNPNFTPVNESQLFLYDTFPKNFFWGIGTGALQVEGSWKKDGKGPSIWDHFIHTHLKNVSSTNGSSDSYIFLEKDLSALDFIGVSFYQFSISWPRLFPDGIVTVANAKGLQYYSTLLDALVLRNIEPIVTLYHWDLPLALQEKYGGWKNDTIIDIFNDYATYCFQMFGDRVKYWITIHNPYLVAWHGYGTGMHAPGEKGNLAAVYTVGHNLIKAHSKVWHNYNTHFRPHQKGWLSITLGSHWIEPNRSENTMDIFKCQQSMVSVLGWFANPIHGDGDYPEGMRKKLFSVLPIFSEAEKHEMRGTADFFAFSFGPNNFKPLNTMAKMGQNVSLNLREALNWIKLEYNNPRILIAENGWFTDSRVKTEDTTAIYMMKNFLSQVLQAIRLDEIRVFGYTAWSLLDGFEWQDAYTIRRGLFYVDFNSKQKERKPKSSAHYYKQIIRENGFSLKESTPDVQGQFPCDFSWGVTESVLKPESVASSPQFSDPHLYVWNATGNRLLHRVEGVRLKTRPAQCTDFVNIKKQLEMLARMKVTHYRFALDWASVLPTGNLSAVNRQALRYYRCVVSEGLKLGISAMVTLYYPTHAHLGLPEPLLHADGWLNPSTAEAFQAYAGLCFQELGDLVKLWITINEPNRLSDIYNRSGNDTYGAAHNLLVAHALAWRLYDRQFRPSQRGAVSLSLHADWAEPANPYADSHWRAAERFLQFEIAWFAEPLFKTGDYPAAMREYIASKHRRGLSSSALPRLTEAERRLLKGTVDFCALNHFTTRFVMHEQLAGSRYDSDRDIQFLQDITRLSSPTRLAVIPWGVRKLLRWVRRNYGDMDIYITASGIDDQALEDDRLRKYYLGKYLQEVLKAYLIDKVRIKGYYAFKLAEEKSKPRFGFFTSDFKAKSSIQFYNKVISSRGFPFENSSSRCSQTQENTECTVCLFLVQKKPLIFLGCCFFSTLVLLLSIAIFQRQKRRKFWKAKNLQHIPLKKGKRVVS

B1: Ab0332 (antibody, IgG4, V domains shown)
VH: QVTLKESGPVLVKPTETLTLTCTVSGFSLNNARVGVSWIRQPPGKALEWLAHIFSNDEKSYSTSLKSRLTISKDTSKSQVVLTMTNMDPVDTATYYCARSVVTGGYYYEGMDVWGQGTTVTVSS
VL: SYVLTQPPSVSVAPGQTARITCGGSNIGSESVHWYQQKPGQAPVLVVYSESDRPSGIPERFSGSNSGNTATLTISRVEAGDEADYYCQVWEGASDHVVFGGGTKLTVLG
notes: IgG4 PE
- EC50 [1]: 0.05 nM
- Emax [1]: 995%
- koff (human beta-Klotho (KLB)): 0.00143 s⁻¹

B3: Ab0344 (antibody, IgG4, V domains shown)
VH: B1 VH
VL: B1 VL with S49A, E50A, A93S
notes: IgG4 PE
- EC50 [1]: 0.07 nM
- Emax [1]: 958%
- koff (human beta-Klotho (KLB)): 0.00168 s⁻¹

B5: Ab0333 (antibody, IgG4, V domains shown)
VH: B1 VH
VL: B1 VL with E50Y, E91A, A93S
notes: IgG4 PE
- EC50 [1]: 0.2 nM
- Emax [1]: 769%
- koff (human beta-Klotho (KLB)): 0.000251 s⁻¹

B7: Ab0338 (antibody, IgG4, V domains shown)
VH: B1 VH
VL: B1 VL with E50S, E91A, A93S
notes: IgG4 PE
- EC50 [1]: 0.06 nM
- Emax [1]: 971%
- koff (human beta-Klotho (KLB)): 0.000429 s⁻¹

B8: Ab0340 (antibody, IgG4, V domains shown)
VH: B1 VH
VL: B1 VL with S49A, A93S
notes: IgG4 PE
- EC50 [1]: 0.05 nM
- Emax [1]: 912%
- koff (human beta-Klotho (KLB)): 0.00176 s⁻¹

B10: Ab0337 (antibody, IgG4, V domains shown)
VH: B1 VH
VL: B1 VL with E50H, A93E
notes: IgG4 PE
- EC50 [1]: 0.06 nM
- Emax [1]: 1030%
- koff (human beta-Klotho (KLB)): 0.00053 s⁻¹

B15: Ab0345 (antibody, IgG4, V domains shown)
VH: B1 VH
VL: B1 VL with S49A, E50A
notes: IgG4 PE
- EC50 [1]: 0.07 nM
- Emax [1]: 908%
- koff (human beta-Klotho (KLB)): 0.00188 s⁻¹

Continued, values first:

- EC50 [1]: 0.08 nM
- Emax [1]: 845%
- koff (human beta-Klotho (KLB)): 0.00192 s⁻¹
B2: Ab0360 (antibody, IgG4, V domains shown)
VH: B1 VH
VL: B1 VL with S49E, E50H, A93S
notes: IgG4 PE

- EC50 [1]: 0.08 nM
- Emax [1]: 895%
- koff (human beta-Klotho (KLB)): 0.00038 s⁻¹
B4: Ab0353 (antibody, IgG4, V domains shown)
VH: B1 VH
VL: B1 VL with S49E
notes: IgG4 PE

- EC50 [1]: 0.07 nM
- Emax [1]: 1010%
- koff (human beta-Klotho (KLB)): 0.000419 s⁻¹
B6: Ab0352 (antibody, IgG4, V domains shown)
VH: B1 VH
VL: B1 VL with S49E, A93S
notes: IgG4 PE

- EC50 [1]: 0.07 nM
- Emax [1]: 878%
- koff (human beta-Klotho (KLB)): 0.00158 s⁻¹
B9: Ab0354 (antibody, IgG4, V domains shown)
VH: B1 VH
VL: B1 VL with S49E, E91H, A93S
notes: IgG4 PE

- EC50 [1]: 0.07 nM
- Emax [1]: 829%
- koff (human beta-Klotho (KLB)): 0.00195 s⁻¹
B11: Ab0355 (antibody, IgG4, V domains shown)
VH: B1 VH
VL: B1 VL with S49E, E50Y, A93S
notes: IgG4 PE

- EC50 [1]: 0.08 nM
- Emax [1]: 893%
- koff (human beta-Klotho (KLB)): 0.00185 s⁻¹
B12: Ab0357 (antibody, IgG4, V domains shown)
VH: B1 VH
VL: B1 VL with S49E, E50A, A93S
notes: IgG4 PE

- EC50 [1]: 0.07 nM
- Emax [1]: 986%
- koff (human beta-Klotho (KLB)): 0.00163 s⁻¹
B13: Ab0361 (antibody, IgG4, V domains shown)
VH: B1 VH
VL: B1 VL with S49E, E50S, A93S
notes: IgG4 PE

- EC50 [1]: 0.07 nM
- Emax [1]: 858%
- koff (human beta-Klotho (KLB)): 0.000454 s⁻¹
B14: Ab0358 (antibody, IgG4, V domains shown)
VH: B1 VH
VL: B1 VL with S49E, E50A, E91H, A93S
notes: IgG4 PE

Reference: patent US20220010021A1 (Sanofi, published 2022)
